Results published in patent US20110124572A1, “SYNDECAN-4 IS A REGULATOR OF RAC1-GTP” (priority 2008, published 2011).

Target: p21-binding domain of PAK-1 fused to agarose beads (GST-Pak1-Rac/Cdc42-binding domain), as used in the Rac1 activation kit (UniProt Q13153)
Test: PAK-1 p21-binding domain (PAK-PKB) pull-down from cell lysate, blot with anti-syndecan-4 or anti-GFP

Sequence of p21-binding domain of PAK-1 fused to agarose beads (GST-Pak1-Rac/Cdc42-binding domain), as used in the Rac1 activation kit (Q13153 67-150 limits assumed): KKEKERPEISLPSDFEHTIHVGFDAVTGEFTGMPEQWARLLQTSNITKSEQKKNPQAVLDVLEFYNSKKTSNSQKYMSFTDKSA

Substance: wt-syndecan-4-GFP chimera (human syndecan-4, wild type, GFP inserted at position 131) (from UniProt P31431 19-198)
- amount of pulled-down syndecan-4 against the Ser179Ala line (% less than Ser179Ala line): 20
